{
  "source": "patent US7648964B2",
  "about": "“Use of lacritin in promoting ocular cell survival” (University of Virginia Patent Foundation, priority 2004, dated 2010)",
  "key": {"[1]": {"tested_on": "48 kDa band in HSG cells", "assay": "Tyrosine phosphorylation of 48 kDa band, HSG cells", "type": "cell-based, human", "procedure": "(§1) Freshly isolated rat lacrimal acinar cells, and HSG (human salivary gland) ductal and HCE (human corneal epithelial) cell lines were used to study lacritin function. For secretion studies, rat acinar cells were plated serum-free overnight on wells co-coated with 0.05 μM laminin 1 (to ensure adhesion) and 0 to 20 μM lacritin, or alternatively with laminin-1 (0.05 μM) and treated the next day with serum-free medium containing 0 to 162 ng/ml of soluble lacritin for four hours. Unstimulated and stimulated (carbachol 10^−4 M/VIP 10^−8 M) secretions were then collected, assessed (peroxidase assay) and normalized to μg cellular DNA. To study tyrosine phosphorylation, overnight serum-free cultures of both rat lacrimal acinar and HSG cells were washed and treated with 10 ng/ml of soluble lacritin for 0.5, 2.5, 10, and 30 minutes. Py(20) anti-phosphotyrosine antibody immunoprecipitation of cell lysates was then examined in Western blots of 7% SDS PAGE gels using Py(20) and ECL for detection. […] Using an inverted Zeiss 510 LSM for visualization, 50 second baseline images were first recorded. While the laser was running, lacritin was added (final concentration 4 and 40 ng/ml) and the response continually monitored every 786 msec for a minimum of 200 sec."}, "[2]": {"tested_on": "rat lacrimal acinar cells", "assay": "Secretion by freshly isolated rat lacrimal acinar cells (peroxidase assay)", "type": "cell-based", "procedure": "as §1, with “minutes.” for “minutes. Py(20) anti-phosphotyrosine antibody immunoprecipitation of cell lysates was then examined in Western blots of 7% SDS PAGE gels using Py(20) and ECL for detection.”\nLacritin function of three types of epithelial cells was assessed in serum-free cultures of: 1) lacrimal acinar; 2) salivary ductal; and 3) corneal epithelial cells using secretion (acinar), proliferation (ductal), tyrosine phosphorylation (acinar, ductal) and calcium signaling (corneal epithelial) assays. […]"}, "[3]": {"tested_on": "human epidermal (A431) cells", "assay": "3H-thymidine uptake mitogenesis assay", "type": "cell-based"}, "[4]": {"tested_on": "human glioma (U-1242-MG) cells", "assay": "3H-thymidine uptake mitogenesis assay", "type": "cell-based", "conditions": "even at higher doses"}, "[5]": {"tested_on": "mouse fibroblast (NIH/3T3) cells", "assay": "3H-thymidine uptake mitogenesis assay", "type": "cell-based"}, "[6]": {"tested_on": "human glioma (U-251-MG) cells", "assay": "3H-thymidine uptake mitogenesis assay", "type": "cell-based", "conditions": "even at higher doses"}, "[7]": {"tested_on": "MUC16", "assay": "MUC16 blot of human corneal epithelial cells", "type": "cell-based", "conditions": "10 nM", "source_text": "MUC16 is an important mucin on the ocular surface. Mucin contributes to the tear film, is important for wetting the ocular surface, and is reduced in Sjogren's syndrome patients. […] Cells were blotted for MUC16."}},
  "data": [
    {"molecule": "lacritin: recombinant human lacritin from E. coli; mature 119 residue fragment (SEQ ID NO:10) of native lacritin SEQ ID NO:4 (protein, listed as Homo sapiens) EDASSDSTGADPAQEAGTSKPNEEISGPAEPASPPETTTTAQETSAAAVQGTAKVTSSRQELNPLKSIVEKSILLTEQALAKAGKGMHGGVPGGKQFIENGSEFAQKLLKKFSLLKPWA", "values": [
      {"measurement": "tyrosine phosphorylation of a 48 kDa band", "setting": "[1]", "result": "promoted the transient tyrosine phosphorylation"},
      {"measurement": "stimulated secretory pathways", "setting": "[2]; activated by agonists carbachol and VIP", "result": "no effect"},
      {"measurement": "unstimulated secretion", "setting": "[2]; coated and soluble lacritin, serum-free", "result": "enhanced unstimulated secretion in a dose-dependent manner"},
      {"measurement": "mitogenesis", "setting": "[3]", "result": "not mitogenic"},
      {"measurement": "mitogenesis", "setting": "[4]", "result": "not mitogenic"},
      {"measurement": "mitogenesis", "setting": "[5]", "result": "not mitogenic"},
      {"measurement": "mitogenesis", "setting": "[6]", "result": "not mitogenic"},
      {"measurement": "MUC16 secretion", "setting": "[7]", "result": "greatly enhanced"}
    ]}
  ]
}
